# Source: PMC12957798 (2025)
# B1: SC17-2 (peptide)
# chain: SFMPLSIPIMCKMLSKC
# modifications: biotinylated EGFR
# B2: SC17-2 (peptide)
# chain: SFMPLSIPIMCKMLSKC
# Key:
# EGFR [1] = biological target: T1, EGFR (Homo sapiens, UniProt P00533); test: BLI
# EGFR [2] = biological target: T1, EGFR; test: SPR
Binder,Kd (EGFR [1]),Kd (EGFR [2])
B1,229 nM,
B2,,148 nM
